Test results reported in the supplement of paper PMC11246515.
± gives the standard deviation of the averaged measurements.

Experiment: total protein half-life in vivo (active degradation + dilution); higher = more stable protein
[1] = E. coli NCM3722 delta-clpP delta-lon delta-hslV, growth: N-lim chemostat, doubling time 6 h
[2] = E. coli NCM3722 delta-clpP, growth: N-lim chemostat, doubling time 6 h
[3] = E. coli NCM3722 delta-hslV, growth: N-lim chemostat, doubling time 6 h
[4] = E. coli NCM3722 delta-lon, growth: N-lim chemostat, doubling time 6 h
[5] = E. coli NCM3722 delta-smpB, growth: N-lim chemostat, doubling time 6 h
[6] = wild type E. coli NCM3722, growth: C-lim chemostat, doubling time 3 h
[7] = wild type E. coli NCM3722, growth: C-lim chemostat, doubling time 6 h
[8] = wild type E. coli NCM3722, growth: C-lim chemostat, doubling time 12 h
[9] = wild type E. coli NCM3722, growth: N-lim chemostat, doubling time 12 h
[10] = wild type E. coli NCM3722, growth: P-lim chemostat, doubling time 6 h
[11] = wild type E. coli NCM3722, growth: P-lim chemostat, doubling time 12 h
[12] = wild type E. coli NCM3722, growth: N-lim chemostat, doubling time 6 h

| Sequence | total protein half-life in vivo [1] [h] | total protein half-life in vivo [2] [h] | total protein half-life in vivo [3] [h] | total protein half-life in vivo [4] [h] | total protein half-life in vivo [5] [h] | total protein half-life in vivo [6] [h] | total protein half-life in vivo [7] [h] | total protein half-life in vivo [8] [h] | total protein half-life in vivo [9] [h] | total protein half-life in vivo [10] [h] | total protein half-life in vivo [11] [h] | total protein half-life in vivo [12] [h] |
| --- | --- | --- | --- | --- | --- | --- | --- | --- | --- | --- | --- | --- |
| MTNYSLRARMMILILAPTVLIGLLLSIFFVVHRYNDLQRQLEDAGASIIEPLAVSTEYGMSLQNRESIGQLISVLHRRHSDIVRAISVYDENNRLFVTSNFHLDPSSMQLGSNVPFPRQLTVTRDGDIMILRTPIISESYSPDESPSSDAKNSQNMLGYIALELDLKSVRLQQYKEIFISSVMMLFCIGIALIFGWRLMRDVTGPIRNMVNTVDRIRRGQLDSRVEGFMLGELDMLKNGINSMAMSLAAYHEEMQHNIDQATSDLRETLEQMEIQNVELDLAKKRAQEAARIKSEFLANMSHELRTPLNGVIGFTRLTLKTELTPTQRDHLNTIERSANNLLAIINDVLDFSKLEAGKLILESIPFPLRSTLDEVVTLLAHSSHDKGLELTLNIKSDVPDNVIGDPLRLQQIITNLVGNAIKFTENGNIDILVEKRALSNTKVQIEVQIRDTGIGIPERDQSRLFQAFRQADASISRRHGGTGLGLVITQKLVNEMGGDISFHSQPNRGSTFWFHINLDLNPNIIIEGPSTQCLAGKRLAYVEPNSAAAQCTLDILSETPLEVVYSPTFSALPPAHYDMMLLGIAVTFREPLTMQHERLAKAVSMTDFLMLALPCHAQVNAEKLKQDGIGACLLKPLTPTRLLPALTEFCHHKQNTLLPVTDESKLAMTVMAVDDNPANLKLIGALLEDMVQHVELCDSGHQAVERAKQMPFDLILMDIQMPDMDGIRACELIHQLPHQQQTPVIAVTAHAMAGQKEKLLGAGMSDYLAKPIEEERLHNLLLRYKPGSGISSRVVTPEVNEIVVNPNATLDWQLALRQAAGKTDLARDMLQMLLDFLPEVRNKVEEQLVGENPEGLVDLIHKLHGSCGYSGVPRMKNLCQLIEQQLRSGTKEEDLEPELLELLDEMDNVAREASKILG [P0AEC5] | 6.36 ± 0.23 | 5.96 ± 0.43 | 6.35 ± 0.93 | 6.05 ± 1.2 | 5.8 ± 0.066 | 3.45 ± 0.058 | 5.985 ± 0.046 | 10.5 ± 1.6 | 13.1 ± 0.83 | 6.32 ± 0.066 | 11.4 ± 0.16 | – |
| MTLNKTDRIVITLGKQIVHGKYVPGSPLPAEAELCEEFATSRNIIREVFRSLMAKRLIEMKRYRGAFVAPRNQWNYLDTDVLQWVLENDYDPRLISAMSEVRNLVEPAIARWAAERATSSDLAQIESALNEMIANNQDREAFNEADIRYHEAVLQSVHNPVLQQLSIAISSLQRAVFERTWMGDEANMPQTLQEHKALFDAIRHQDGDAAEQAALTMIASSTRRLKEIT | 5.42 ± 0.19 | 5.12 ± 0.7 | 4.89 ± 0.076 | 5.07 ± 0.42 | 4.36 ± 0.15 | 2.87 ± 0.24 | 5.54 ± 0.089 | 9.94 ± 0.54 | 7.99 ± 0.64 | 4.902 ± 0.047 | 10.15 ± 0.052 | 4.79 ± 0.079 |
| MARIIVVTSGKGGVGKTTSSAAIATGLAQKGKKTVVIDFDIGLRNLDLIMGCERRVVYDFVNVIQGDATLNQALIKDKRTENLYILPASQTRDKDALTREGVAKVLDDLKAMDFEFIVCDSPAGIETGALMALYFADEAIITTNPEVSSVRDSDRILGILASKSRRAENGEEPIKEHLLLTRYNPGRVSRGDMLSMEDVLEILRIKLVGVIPEDQSVLRASNQGEPVILDINADAGKAYADTVERLLGEERPFRFIEEEKKGFLKRLFGG [P0AEZ3] | 5.31 ± 0.21 | 5.22 ± 0.21 | 5.442 ± 0.017 | 5.66 ± 0.15 | 4.87 ± 0.023 | 2.94 ± 0.16 | 5.54 ± 0.16 | 10.1 ± 0.8 | 9.98 ± 0.53 | 4.93 ± 0.2 | 9.29 ± 0.22 | 5.17 ± 0.36 |
| MTATAQQLEYLKNSIKSIQDYPKPGILFRDVTSLLEDPKAYALSIDLLVERYKNAGITKVVGTEARGFLFGAPVALGLGVGFVPVRKPGKLPRETISETYDLEYGTDQLEIHVDAIKPGDKVLVVDDLLATGGTIEATVKLIRRLGGEVADAAFIINLFDLGGEQRLEKQGITSYSLVPFPGH | – | 4.03 ± 0.92 | 4.32 ± 0.47 | 4.33 ± 0.17 | 3.58 ± 0.46 | – | 4.57 ± 0.87 | 8.09 ± 0.39 | 6.92 ± 0.095 | 5.1 ± 0.18 | 10.9 ± 0.8 | 5.06 ± 1 |
| MNFPLIANIVVFVVLLFALAQTRHKQWSLAKKVLVGLVMGVVFGLALHTIYGSDSQVLKDSVQWFNIVGNGYVQLLQMIVMPLVFASILSAVARLHNASQLGKISFLTIGTLLFTTLIAALVGVLVTNLFGLTAEGLVQGGAETARLNAIESNYVGKVSDLSVPQLVLSFIPKNPFADLTGANPTSIISVVIFAAFLGVAALKLLKDDAPKGERVLAAIDTLQSWVMKLVRLVMQLTPYGVLALMTKVVAGSNLQDIIKLGSFVVASYLGLLIMFAVHGILLGINGVSPLKYFRKVWPVLTFAFTSRSSAASIPLNVEAQTRRLGVPESIASFAASFGATIGQNGCAGLYPAMLAVMVAPTVGINPLDPMWIATLVGIVTVSSAGVAGVGGGATFAALIVLPAMGLPVTLVALLISVEPLIDMGRTALNVSGSMTAGTLTSQWLKQTDKAILDSEDDAELAHH | 5.42 ± 0.17 | 4.76 ± 0.058 | 5.07 ± 0.26 | 5 ± 0.65 | 5.38 ± 0.78 | 3.35 ± 0.46 | 6.36 ± 1.8 | 11.4 ± 2 | 8.91 ± 0.48 | 5.29 ± 0.62 | 7.43 ± 0.75 | 4.95 ± 1.1 |
| MDHAIYTAMGAASQTLNQQAVTASNLANASTPGFRAQLNALRAVPVEGLSLPTRTLVTASTPGADMTPGKMDYTSRPLDVALQQDGWLAVQTADGSEGYTRNGSIQVDPTGQLTIQGHPVIGEAGPIAVPEGAEITIAADGTISALNPGDPANTVAPVGRLKLVKATGSEVQRGDDGIFRLSAETQATRGPVLQADPTLRVMSGVLEGSNVNAVAAMSDMIASARRFEMQMKVISSVDDNAGRANQLLSMS | – | – | – | – | – | 0.504 ± 0.13 | – | 3.33 ± 1.4 | – | – | – | – |
| MEYRSLTLDDFLSRFQLLRPQINRETLNHRQAAVLIPIVRRPQPGLLLTQRSIHLRKHAGQVAFPGGAVDDTDASAIAAALREAEEEVAIPPSAVEVIGVLPPVDSVTGYQVTPVVGIIPPDLPYRASEDEVSAVFEMPLAQALHLGRYHPLDIYRRGDSHRVWLSWYEQYFVWGMTAGIIRELALQIGVKP | 5.44 ± 0.41 | 2.96 ± 0.13 | 3.99 ± 0.25 | 4.38 ± 0.51 | 3.01 ± 0.22 | 2.36 ± 0.8 | 5.03 ± 0.89 | 7.74 ± 0.73 | 6.98 ± 0.38 | 4.45 ± 0.2 | 8.18 ± 0.56 | 4 ± 0.21 |
| MIEWQDLHHSELSVSQLYALLQLRCAVFVVEQNCPYQDIDGDDLTGDNRHILGWKNDELVAYARILKSDDDLEPVVIGRVIVSEALRGEKVGQQLMSKTLETCTHHWPDKPVYLGAQAHLQNFYQSFGFIPVTEVYEEDGIPHIGMAREVIQA [P0AEH3] | 4.51 ± 0.43 | – | 3.93 ± 1.4 | 3.58 ± 0.13 | 2.23 ± 0.14 | 2.35 ± 0.064 | 4.3 ± 0.27 | 7.04 ± 0.82 | 3.85 ± 0.064 | 4.54 ± 0.38 | 9.98 ± 1.5 | 2.68 ± 0.086 |
| MANLSGYNFAYLDEQTKRMIRRAILKAVAIPGYQVPFGGREMPMPYGWGTGGIQLTASVIGESDVLKVIDQGADDTTNAVSIRNFFKRVTGVNTTERTDDATVIQTRHRIPETPLTEDQIIIFQVPIPEPLRFIEPRETETRTMHALEEYGVMQVKLYEDIARFGHIATTYAYPVKVNGRYVMDPSPIPKFDNPKMDMMPALQLFGAGREKRIYAVPPFTRVESLDFDDHPFTVQQWDEPCAICGSTHSYLDEVVLDDAGNRMFVCSDTDYCRQQSEAKNQ | – | – | – | – | – | – | – | – | – | 0.723 ± 0.41 | 1.37 ± 0.74 | – |
| MFQQQKDWETRENAFAAFTMGPLTDFWRQRDEAEFTGVDDIPVRFVRFRAQHHDRVVVICPGRIESYVKYAELAYDLFHLGFDVLIIDHRGQGRSGRLLADPHLGHVNRFNDYVDDLAAFWQQEVQPGPWRKRYILAHSMGGAISTLFLQRHPGVCDAIALTAPMFGIVIRMPSFMARQILNWAEAHPRFRDGYAIGTGRWRALPFAINVLTHSRQRYRRNLRFYADDPTIRVGGPTYHWVRESILAGEQVLAGAGDDATPTLLLQAEEERVVDNRMHDRFCELRTAAGHPVEGGRPLVIKGAYHEILFEKDAMRSVALHAIVDFFNRHNSPSGNRSTEV | 5.43 ± 1.2 | > 8 | 4.87 ± 0.73 | 4.93 ± 0.22 | 4.57 ± 0.31 | 3.13 ± 0.43 | 6.52 ± 0.38 | 11.3 ± 1.8 | 8.56 ± 0.72 | 6.17 ± 0.69 | 10.8 ± 0.91 | 4.42 ± 0.28 |
